Source: patent publication US20260193334A1 (ZOETIS SERVICES, published 2026)

Key:
[1] = target: IL-31 (target protein of mAb1); assay: cell-based or functional assay
[2] = target: T1, canine FcRn complex (FcRn-α subunit and β-microglobulin) (canine, UniProt A0A8I3PFR8 25-347, biotin labeled through BirA enzymatic reaction in Example 5); assay: SPR (Biacore), FcRn amine-coupled on CM5, IgG as analyte, pH 6, 15 C
[3] = target: T1, canine FcRn complex (FcRn-α subunit and …); assay: SPR (Biacore), FcRn amine-coupled on CM5, IgG as analyte, pH 7.2, 15 C
[4] = target: TGFβ (target protein of mAb3); assay: cell-based or functional assay
[5] = target: canine FcRn complex (FcRn-α subunit and β-microglobulin) (canine); assay: SPR (Biacore), FcRn amine-coupled on CM5, IgG as analyte, pH 6, 15 C
[6] = target: NGF (target protein of mAb2); assay: cell-based or functional assay
[7] = target: canine FcRn complex (FcRn-α subunit and β-microglobulin) (canine); assay: SPR (Biacore), FcRn amine-coupled on CM5, IgG as analyte, pH 7.2, 15 C

T1 sequence (A0A8I3PFR8 entry or part of it, one chain of several): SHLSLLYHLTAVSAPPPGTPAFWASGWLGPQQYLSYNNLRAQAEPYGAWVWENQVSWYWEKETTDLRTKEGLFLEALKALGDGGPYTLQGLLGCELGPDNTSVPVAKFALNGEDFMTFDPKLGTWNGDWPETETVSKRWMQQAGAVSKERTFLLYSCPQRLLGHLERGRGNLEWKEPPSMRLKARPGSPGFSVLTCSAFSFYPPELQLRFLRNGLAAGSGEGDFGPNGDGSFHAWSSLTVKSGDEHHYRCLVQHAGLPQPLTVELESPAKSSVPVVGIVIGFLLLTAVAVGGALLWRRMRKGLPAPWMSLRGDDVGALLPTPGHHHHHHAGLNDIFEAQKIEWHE

Binder	IC50 (cell based potency assay) [1]	Kd [2]	Kd [3]	Kd [5]	IC50 (cell based potency assay) [6]	also measured
caninized anti-IL31 antibody 34D03, canine IgGB (65), N434H (antibody, also called mAb1 N434H; ID No. 31) heavy: EVQLVESGGDLVKPGGSLRLSCVASGFTFSNYGMSWVRQAPGKGLQWVATISYGGSYTYYPDNIKGRFTISRDNAKNTLYLQMNSLRAEDTAMYYCVRGYGYDTMDYWGQGTLVTVSSASTTAPSVFPLAPSCGSTSGSTVALACLVSGYFPEPVTVSWNSGSLTSGVHTFPSVLQSSGLYSLSSMVTVPSSRWPSETFTCNVAHPASKTKVDKPVPKRENGRVPRPPDCPKCPAPEMLGGPSVFIFPPKPKDTLLIARTPEVTCVVVDLDPEDPEVQISWFVDGKQMQTAKTQPREEQFNGTYRVVSVLPIGHQDWLKGKQFTCKVNNKALPSPIERTISKARGQAHQPSVYVLPPSREELSKNTVSLTCLIKDFFPPDIDVEWQSNGQQEPESKYRTTPPQLDEDGSYFLYSKLSVDKSRWQRGDTFICAVMHEALHHHYTQESLSHSPGK VL: EIVMTQSPASLSLSQEEKVTITCKASQSVSFAGTGLMHWYQQKPGQAPKLLIYRASNLEAGVPSRFSGSGSGTDFSFTISSLEPEDVAVYYCQQSREYPWTFGQGTKLEIK	0.00099 µM	0.0007 to 0.0013 µM	5 µM	–	–	–
anti-TGFβ antibody ZTS-4155, canine IgGB (65), wild-type (antibody, built here as variable domain plus IgGB constant domain; also called mAb3 WT) heavy: EVQLVQSGAEVKKPGASVKVSCKTSGYTFITYWMNWVRQAPGAGLDWMGQIFPASGSTNYNEMFEGRVTLTADTSTSTAYMELSSLRAGDIAVYYCARGDGNYALDAMDYWGQGTLVTASTTAPSVFPLAPSCGSTSGSTVALACLVSGYFPEPVTVSWNSGSLTSGVHTFPSVLQSSGLYSLSSMVTVPSSRWPSETFTCNVAHPASKTKVDKPVPKRENGRVPRPPDCPKCPAPEMLGGPSVFIFPPKPKDTLLIARTPEVTCVVVDLDPEDPEVQISWFVDGKQMQTAKTQPREEQFNGTYRVVSVLPIGHQDWLKGKQFTCKVNNKALPSPIERTISKARGQAHQPSVYVLPPSREELSKNTVSLTCLIKDFFPPDIDVEWQSNGQQEPESKYRTTPPQLDEDGSYFLYSKLSVDKSRWQRGDTFICAVMHEALHNHYTQESLSHSPGK VL: DIVMTQTPPSLSVSPRETASISCRASESVDSYGNSFMHWYLQKPGQSPQLLIYLASNLESGVSDRFSGSGSGTDFTLRISRVEANDTGVYYCQQNNEDPLTFGQ	–	0.523 µM	–	–	–	IC50 (cell based potency assay) [4]: 0.13 mg/L
anti-TGFβ antibody ZTS-4155, canine IgGB (65), N434Y (antibody) chain 1: EVQLVQSGAEVKKPGASVKVSCKTSGYTFITYWMNWVRQAPGAGLDWMGQIFPASGSTNYNEMFEGRVTLTADTSTSTAYMELSSLRAGDIAVYYCARGDGNYALDAMDYWGQGTLVTVSSASTTAPSVFPLAPSCGSTSGSTVALACLVSGYFPEPVTVSWNSGSLTSGVHTFPSVLQSSGLYSLSSMVTVPSSRWPSETFTCNVAHPASKTKVDKPVPKRENGRVPRPPDCPKCPAPEMLGGPSVFIFPPKPKDTLLIARTPEVTCVVVDLDPEDPEVQISWFVDGKQMQTAKTQPREEQFNGTYRVVSVLPIGHQDWLKGKQFTCKVNNKALPSPIERTISKARGQAHQPSVYVLPPSREELSKNTVSLTCLIKDFFPPDIDVEWQSNGQQEPESKYRTTPPQLDEDGSYFLYSKLSVDKSRWQRGDTFICAVMHEALHYHYTQESLSHSPGK chain 2: DIVMTQTPPSLSVSPRETASISCRASESVDSYGNSFMHWYLQKPGQSPQLLIYLASNLESGVSDRFSGSGSGTDFTLRISRVEANDTGVYYCQQNNEDPLTFGQGTKLEIKRNDAQPAVYLFQPSPDQLHTGSASVVCLLNSFYPKDINVKWKVDGVIQDTGIQESVTEQDKDSTYSLSSTLTMSSTEYLSHELYSCEITHKSLPSTLIKSFQRSEC	–	0.00156 µM	0.0386 µM	–	–	–

Now from value to binder, other results behind:

IC50 (cell based potency assay) [1]	Kd [2]	Kd [3]	Kd [5]	IC50 (cell based potency assay) [6]	Binder	also measured
0.0011 µM	0.015 to 0.0244 µM	–	–	–	caninized anti-IL31 antibody 34D03, canine IgGB (65), wild-type (antibody, also called mAb1 WT; ID No. 8) heavy: EVQLVESGGDLVKPGGSLRLSCVASGFTFSNYGMSWVRQAPGKGLQWVATISYGGSYTYYPDNIKGRFTISRDNAKNTLYLQMNSLRAEDTAMYYCVRGYGYDTMDYWGQGTLVTVSSASTTAPSVFPLAPSCGSTSGSTVALACLVSGYFPEPVTVSWNSGSLTSGVHTFPSVLQSSGLYSLSSMVTVPSSRWPSETFTCNVAHPASKTKVDKPVPKRENGRVPRPPDCPKCPAPEMLGGPSVFIFPPKPKDTLLIARTPEVTCVVVDLDPEDPEVQISWFVDGKQMQTAKTQPREEQFNGTYRVVSVLPIGHQDWLKGKQFTCKVNNKALPSPIERTISKARGQAHQPSVYVLPPSREELSKNTVSLTCLIKDFFPPDIDVEWQSNGQQEPESKYRTTPPQLDEDGSYFLYSKLSVDKSRWQRGDTFICAVMHEALHNHYTQESLSHSPGK VL: EIVMTQSPASLSLSQEEKVTITCKASQSVSFAGTGLMHWYQQKPGQAPKLLIYRASNLEAGVPSRFSGSGSGTDFSFTISSLEPEDVAVYYCQQSREYPWTFGQGTKLEIK	–
–	–	–	0.0572 µM	0.0237 µM	caninized anti-NGF antibody mAb2 of Tables 1-3, canine IgGB (65), wild-type (antibody, part only; not given: Anti-NGF heavy and light variable domains, part only) heavy, part: ASTTAPSVFPLAPSCGSTSGSTVALACLVSGYFPEPVTVSWNSGSLTSGVHTFPSVLQSSGLYSLSSMVTVPSSRWPSETFTCNVAHPASKTKVDKPVPKRENGRVPRPPDCPKCPAPEMLGGPSVFIFPPKPKDTLLIARTPEVTCVVVDLDPEDPEVQISWFVDGKQMQTAKTQPREEQFNGTYRVVSVLPIGHQDWLKGKQFTCKVNNKALPSPIERTISKARGQAHQPSVYVLPPSREELSKNTVSLTCLIKDFFPPDIDVEWQSNGQQEPESKYRTTPPQLDEDGSYFLYSKLSVDKSRWQRGDTFICAVMHEALHNHYTQESLSHSPGK	–
–	–	–	0.0073 µM	0.0209 µM	caninized anti-NGF antibody mAb2 of Tables 1-3, canine IgGB (65), N434H (antibody, part only; not given: Anti-NGF heavy and light variable domains, part only) heavy, part: ASTTAPSVFPLAPSCGSTSGSTVALACLVSGYFPEPVTVSWNSGSLTSGVHTFPSVLQSSGLYSLSSMVTVPSSRWPSETFTCNVAHPASKTKVDKPVPKRENGRVPRPPDCPKCPAPEMLGGPSVFIFPPKPKDTLLIARTPEVTCVVVDLDPEDPEVQISWFVDGKQMQTAKTQPREEQFNGTYRVVSVLPIGHQDWLKGKQFTCKVNNKALPSPIERTISKARGQAHQPSVYVLPPSREELSKNTVSLTCLIKDFFPPDIDVEWQSNGQQEPESKYRTTPPQLDEDGSYFLYSKLSVDKSRWQRGDTFICAVMHEALHHHYTQESLSHSPGK	Kd [7]: 1.3 µM
